Test results from patent US20110239327A1, “Nematicidal Effects of Cysteine Proteinases and Methods of Use Thereof to Treat Nematode Infestation” (priority 2007, published 2011).
“Also recorded” adds a separate entry of the source.

Assays:
G. rostochiensis J2s = experiment: In vitro mobility and cuticle damage of G. rostochiensis J2s; type: cell-based, Globodera rostochiensis
Experimental: Eggs of M. incognita race 1 from North Carolina State University, USA, and M. javanica from Portugal were collected from the roots of infected tomato plants grown in a glasshouse at 23° C. in a 16:8 h light-dark regime. Eggs were extracted using 1% hypochlorite (NaClO) solution (Hussey and Barker, 1973) or by picking egg masses from the infected roots. M. incognita and M. javanica were both used in the experiments and produced similar results. Juveniles (J2) were hatched from the eggs and egg masses in water. Globodera rostochiensis cysts were washed extensively in distilled water. Hatched J2s were obtained by incubating cysts in distilled water for 4 days followed by exposure to potato root diffusate (PRD).
Approximately 1000 J2s (second juvenile stage) of M. incognita or M. javanica were incubated per well of a 48-well plate with the following active enzyme concentrations (determined by E-64 titration) of papain dissolved in distilled water containing 16 mM L-cysteine (to activate the cysteine proteinase): 1.5 μM, 3 μM, 6.25 μM, 12.5 μM, 25 μM, 50 μM, 75 μM and 100 μM. […] The number of active J2s per well was counted prior to the addition of papain, and then the J2s were incubated in the dark at room temperature for 3 h. The number of mobile J2s per well was counted after 60, 120 and 180 mins. […]

M. incognita J2 = experiment: In vitro assay of M. incognita J2 present in soil mixtures; type: cell-based
Experimental: The same procedure described above was used to determine the effect of the cysteine proteinases against M. incognita J2 present in soil mixtures. The following soil mixtures were used: fine and coarse sand, peat and fine/coarse sand and loam mix and fine/coarse sand. These soil mixtures were prepared at concentrations of 1:1, 1:3 and 1:6 and autoclaved at […] for 20 min. Peat and loam-mix were obtained from Rothamsted-Research. Soil mixtures were added to 24 well plates (0.5 g) and wetted for 16 hs with either PBS ph 7.2, Tx-100, Milk 5% or cysteine proteinases, in order to wet the soil and block non-specific binding sites present in the soil particles. Then, approximately 100 J2 were added to the wells, followed by cysteine proteinases with 16 mM of L-cysteine to activate the cysteine proteinases or water as control. After 16 hs at room temperature in the dark, individual wells of the 24 well plates were flushed with 1 ml of distilled water to recover the nematodes from the soil mixtures. These were placed in a 24 well plate and the number of dead/live nematodes scored under microscopic observation.
These in vitro experiments were performed in 24 well plates using sterile soil mixtures to diminish the possibility of biological degradation of the enzyme by microorganisms. […] The number of live nematodes was counted before and after enzyme treatment. […]

Pratylenchus penetrans = experiment: In vitro live/dead count of Pratylenchus penetrans; type: cell-based; set-up: concentration of papain latex that killed the nematodes: unit not given here
Experimental: Eggs of M. incognita race 1 from North Carolina State University, USA were collected from tomato-infected roots grown in a glasshouse at 23° C. in a 16:8 h light-dark regime. Eggs were extracted using 1% hypochlorite (NaClO) solution (Hussey and Barker, 1973) or by picking egg masses from tomato-infected roots. Juveniles (J2) were hatched from the eggs and egg masses in water. Heterodera glycines eggs were obtained from soil samples stored in Rothamsted-Research. Second stage juveniles (J2) were hatched from the eggs in water after 10 days. Pratylenchus penetrans were a gift from Dr. Deeren Anne-Marie from the Institute for Agricultural and Fisheries Research, Merelbeke, Belgium. The beneficial nematodes Steinernema feltiae and Heterorhabditis megidis were a gift from Dr. Paul Williams from Becker Underwood.
Control wells were set up which contained J2s and distilled water with 16 mM L-cysteine. Each enzyme concentration and the controls were set up in duplicate (i.e. n=2). […] The number of live and dead J2s per well was counted after each enzyme incubation. The same procedure was followed when setting up further experiments to compare the effects of these enzymes with Heterodera glycines J2, Pratylenchus penetrans, Steinernema feltiae and Heterorhabditis megidis.

B1: papain (protein, UniProt P00784 134-345, looked up)
Papain: IPEYVDWRQKGAVTPVKNQGSCGSCWAFSAVVTIEGIIKIRTGNLNEYSEQELLDCDRRSYGCNGGYPWSALQLVAQYGIHYRNTYPYEGVQRYCRSREKGPYAAKTDGVRQVQPYNEGALLYSIANQPVSVVLEAAGKDFQLYRGGIFVGPCGNKVDHAVAAVGYGPNYILIKNSWGTGWGENGYIRIKRGTGNSYGVCGLYTSSFYPVKN
notes: cysteine proteinase from Carica papaya, Merops C01.001, Sigma P3125
For B1, which “mobility (proportion of active worms) of G. rostochiensis J2s” value (G. rostochiensis J2s; 25 μM active enzyme) is on record?
Its value is “reduction in mobility was significantly greater overall; also recorded: Reductions in the proportion of active worms were evident”.

And the “incubation needed before damage to the cuticle, compared to Meloidogyne spp.” value (G. rostochiensis J2s; data not shown)?
The value was “needed longer incubation periods”.

And the nematode mortality (M. incognita J2; papain latex 100 μM, 16 hours, all soil mixtures (sand; 1:3 sand/loam mix; 1:3 sand/peat))?
Its nematode mortality is 40-50%.

And the “state of the nematodes after two applications of papain to soil” value (M. incognita J2; soil with 16% organic matter wetted with 250 μM papain without L-cysteine, then 250 μM papain in 16 mM L-cysteine, 16 hs)?
The value was “most nematodes were dead”.

What about the “concentration of papain latex that killed the nematodes” value (Pratylenchus penetrans) of the same molecule?
The value was 62.504.

And the recovery of mobility (Pratylenchus penetrans; after 48 hs)?
The recovery of mobility was “no recovery of mobility”.
